# According to patent US20260000759A1 (Genentech, published 2026):
# T1: human oncostatin M receptor beta (OSMRβ) (human, UniProt Q99650 28-979)
# T1 sequence (looked up): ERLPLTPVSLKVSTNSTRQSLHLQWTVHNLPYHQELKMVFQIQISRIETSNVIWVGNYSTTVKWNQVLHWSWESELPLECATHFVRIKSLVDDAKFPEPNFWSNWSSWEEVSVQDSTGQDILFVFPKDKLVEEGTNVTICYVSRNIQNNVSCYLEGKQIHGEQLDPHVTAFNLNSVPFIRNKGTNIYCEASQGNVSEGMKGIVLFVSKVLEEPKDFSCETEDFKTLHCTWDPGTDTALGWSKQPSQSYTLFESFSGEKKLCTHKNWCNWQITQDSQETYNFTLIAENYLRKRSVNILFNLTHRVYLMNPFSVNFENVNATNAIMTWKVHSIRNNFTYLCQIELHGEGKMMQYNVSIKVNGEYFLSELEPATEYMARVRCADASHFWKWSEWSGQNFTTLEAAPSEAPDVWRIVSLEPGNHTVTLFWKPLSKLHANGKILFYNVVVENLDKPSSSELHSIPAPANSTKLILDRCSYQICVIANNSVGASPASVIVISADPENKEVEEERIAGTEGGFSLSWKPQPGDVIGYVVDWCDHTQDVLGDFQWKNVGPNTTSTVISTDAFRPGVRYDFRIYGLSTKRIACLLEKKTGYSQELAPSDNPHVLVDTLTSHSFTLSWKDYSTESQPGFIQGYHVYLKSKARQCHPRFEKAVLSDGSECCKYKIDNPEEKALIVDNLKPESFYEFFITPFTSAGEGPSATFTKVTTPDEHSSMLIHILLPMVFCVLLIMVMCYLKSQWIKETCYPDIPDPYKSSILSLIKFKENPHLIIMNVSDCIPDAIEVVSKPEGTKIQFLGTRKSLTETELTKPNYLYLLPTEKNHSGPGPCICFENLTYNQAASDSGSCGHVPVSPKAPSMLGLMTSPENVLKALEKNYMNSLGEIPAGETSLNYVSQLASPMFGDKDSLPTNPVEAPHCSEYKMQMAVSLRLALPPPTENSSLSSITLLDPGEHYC
# B1: vixarelimab (antibody, human IgG4 S228P, lambda, N297Q, V domains shown)
# VH: QVQLVQSGAEVKKPGASVKVSCKASGYTFTSYEINWVRQATGQGLEWMGWMNPNSGYTGYAQKFQGRVTMTRDTSISTAYMEMSSLRSEDTAVYYCARDIVAANTDYYFYYGMDVWGQGTTVTVSS
# VL: QSVLTQPPSASGTPGQRVTISCSGSNSNIGSNTVNWYHQLPGTAPKLLIYNINKRPSGVPDRFSGSKSGSSASLAISGLQSEDEADYYCSTWDDSLDGVVFGGGTKLTVLG
# Target: T1, human oncostatin M receptor beta (OSMRβ)
# Test: cell-based or functional assay
binder,measurement,value
B1,"Mean of IC50, inhibition of OSM-induced STAT3 phosphorylation (pSTAT3 Tyr705, MSD); IPF-derived lung fibroblasts, [OSM] 1 ng/mL",12.4 ng/mL
same,"Mean of IC50, inhibition of OSM-induced STAT3 phosphorylation (pSTAT3 Tyr705, MSD); IPF-derived lung fibroblasts, [OSM] 10 ng/mL",56.1 ng/mL
same,"Mean of IC50, inhibition of OSM-induced STAT3 phosphorylation (pSTAT3 Tyr705, MSD); normal keratinocytes, [OSM] 10 ng/mL",4.95 ng/mL
same,"Mean of IC50, inhibition of OSM-induced STAT3 phosphorylation (pSTAT3 Tyr705, MSD); normal keratinocytes, [OSM] 100 ng/mL",45 ng/mL
same,"Mean of IC50, inhibition of OSM-induced STAT3 phosphorylation (pSTAT3 Tyr705, MSD); normal lung fibroblasts, [OSM] 1 ng/mL",13 ng/mL
same,"Mean of IC50, inhibition of OSM-induced STAT3 phosphorylation (pSTAT3 Tyr705, MSD); normal lung fibroblasts, [OSM] 10 ng/mL",88.2 ng/mL
